This note sets out measurements from patent CN101671397A (UNIV SICHUAN, dated 2010).

The target of assay [1] is T1, epidermal growth factor receptor (EGFR) on human lung cancer cell line A549 (human, UniProt P00533 25-1210).
T1 construct: whole, on cells; also called 表皮生长因子受体
Nature of the assay: immunofluorescence and flow cytometry on A549 cells (summary). In general terms: Flow cytometry measures light scatter and fluorescence of single cells or particles in a stream.

Assay [2] concerns the target T1, epidermal growth factor receptor (EGFR) …. Nature of the assay: flow cytometry on cells (A549), detected with rabbit antiserum and goat anti-rabbit IgG-FITC.

B1: SCFV(Anti-EGFR)/Gelonin recombinant immunotoxin (抗EGFR单链抗体融合Gelonin重组免疫毒素) (other)
chain: EVQLQQSGAELMKPGASVKISCKATGYTFSSYWIEWVKQRPGHGLEWIGEILPGSKKTNYNEKFKGKATFTADTSSNTAYMQFSSLTSEDSAVYYCARYYYRNDDYGMDYWGQGTTVTVSSGGGGSGGGGSGGGGSDIVMSQSPKSMSMSVGERVTLTCKASENVVTYVSWYQQKPEQSPKLLIYGASNRYTGVPDRFTGSGSATDFTLTISSVQAEDLADYHCGQGCSYPYTFGGGTKLEIKGSGGGGSGGGGSGLDTVSFSTKGATYITYVNFLNELRVKLKPEGNSHGIPLLRKKCDDPGKCFVLVALSNDNGQLAEIAIDVTSVYVVGYQVRNRSYFFKDAPDAAYEGLFKNTIKTRLHFGGSYPSLEGEKAYRETTDLGIEPLRIGIKKLDENAIDNYKPTEIASSLLVVIQMVSEAARFTFIENQIRNNFQQRIRPANNTISLENKWGKLSFQIRTSGANGMFSEAVELERANGKKYYVTAVDQVKPKIALLKFVDKDPK
notes: also called ScFv(Anti-EGFR)/rGel
As to B1, the binding result in assay [1] is “binds”.

B2: recombinant Gelonin (重组Gelonin) (enzyme)
chain: GLDTVSFSTKGATYITYVNFLNELRVKLKPEGNSHGIPLLRKKCDDPGKCFVLVALSNDNGQLAEIAIDVTSVYVVGYQVRNRSYFFKDAPDAAYEGLFKNTIKTRLHFGGSYPSLEGEKAYRETTDLGIEPLRIGIKKLDENAIDNYKPTEIASSLLVVIQMVSEAARFTFIENQIRNNFQQRIRPANNTISLENKWGKLSFQIRTSGANGMFSEAVELERANGKKYYVTAVDQVKPKIALLKFVDKDPK
notes: also called rGel
In the case of B2, in assay [2], the binding result was “no binding (tested: 100umol/L)”.
